Reference: patent US20140205611A1 (EVEC, published 2014)

B1: EV1018 (antibody, human IgG1, lambda)
heavy: not shown
light: QSALTQETSVSGTVGQKVTLSCIGNNNNIGSHAVGWYQQISRGAPKMVLFGRSPPSGVPDRFSGSKSGTTASLIISGLQPEDEADYYCSTWDSSLSAVVFGGGTKLTVLRQPKAAPSVTLFPPSSEELQANKATLVCLISDFYPGAVTVAWKADSSPVKAGVETTTPSKQSNNKYAASSYLSLTPEQWKSHRSYSCQVTHEGSTVEKTVAPTECS
notes: also called wild-type EV1018; WT EV1018
B2: EV1019 (antibody, human IgG1, lambda, V domains shown)
VH: QAQLVESGGGVVKPGGSLRLSCISSKFTFSSHAMHWVRQAPGKGLEWVAVIWHDGSKKYYADSVKGRFSVSRDNSKNTLFLQMDSLRAEDTAVYFCGKEWVGGTCDSWGQGTLVIVSS
VL: QPALTQEASVSGTVGQTVTLLCSGNSSNIGSYAVGWYQQISRGAPKIVVFGKSPASGIPDRFSGSKSGTTASLLVSGLQPEDEADYYCSTWDSRLSAVLFGGGTKLTVLR
notes: also called EV1019 Batch 1; EV1019 Batch 2

Experiments:
[1] = target: recombinant hGM-CSF expressed in E. coli (Fa. Biomol #2514) (human, UniProt P04141 18-144); assay: cell-based or functional assay
[2] = target: T1, recombinant hGM-CSF derived from yeast (Leukine, Berlex) (human, UniProt P04141 18-144); assay: SPR (Biacore), antibody captured via immobilised protein G, rhGM-CSF injected
T1 construct: Bought product; also called yeast hGM-CSF (Leukine); yeast GM-CSF (Leukine)
Description: To calculate affinity constants for recombinant hGM-CSF binding to anti-hGM-CSF monoclonal antibodies, surface plasmon resonance (SPR) was performed on a Biacore System™ (FIG. 2).
In the method to analyze the interaction between antibodies and antigens, the purified antibodies were captured on a sensor chip via interaction with protein G immobilized to sensor chip surface, and then recombinant antigens were injected to the sensor chip. Purified antibodies were used and recombinant hGM-CSF was used as an antigen.

Chain of recombinant hGM-CSF expressed in E. coli (Fa. Biomol #2514) (P04141 18-144 limits assumed): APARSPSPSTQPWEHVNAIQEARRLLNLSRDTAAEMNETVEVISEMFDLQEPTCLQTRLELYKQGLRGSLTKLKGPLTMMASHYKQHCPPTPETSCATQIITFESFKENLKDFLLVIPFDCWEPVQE
T1 sequence (P04141 other isoform, or with tags, fused parts or gaps limits assumed): as the sequence (P04141 18-144 limits assumed) above, with R23L counted along it

Binder | IC50 in TF-1 assay, hGM-CSF (E. coli) at 1.0 ng/ml final concentration [1] | Ratio: Reference antibody to antibody of interest (IC50 of BVD2-21C11 over IC50 of EV1018, TF-1 assay) [1] | Kd [2]
B1 | 0.02 nM | 413 | 0.23 nM
B2 |  |  | 0.36 nM
